Source: patent publication US20230250167A1 (published 2023)
“And” between values parts separate entries of the source, which are not always exact repeats. Identical values can stand only once.

B1: ILT70083.1 (antibody, V domains shown)
VH: EVQLLESGGGLVQPGGSLRLSCAASGFTFSSYAMSWVRQAPGKGLEWVSAISGSGGSTYYADSVKGWFTISRDNSKNTLYLQMNSLRAEDTAVYYCARRTYYYDSDGHSDVFDIWGRGTLVTVSS
VL: QSVVTQPPSVSAAPGQKVTISCSGSASNIGSNFVSWYQQLPGTAPKLLIYDNDKRDLGIPDRFSASISSTSATLGITGLQTGDEADYYCGTWDTSLTVGVFGGGTKLTVL
B2: ILT70083.3 (antibody, V domains shown)
VH: EVQLLESGGGLVQPGGSLRLSCAASGFTFSSYAMSWVRQAPGKGLEWVSAISGSGGSTYYADSVKGWFTISRDNSKNTLYLQMNSLRAEDTAVYYCARRTYYYDSDGHSDVFDIWGRGTLVTVSS
VL: QSVVTQPPSVSAAPGQKVTISCSGSASNIGSNFVSWYQQLPGTAPKLLIYDNDKRDLGIPDRFSGSKSGTSATLGITGLQTGDEADYYCGTWDTSLTVGVFGGGTKLTVL
notes: Engineered (germlined) ILT70083 IgG1 variant; also called ILT70083 variant
B3: ILT70083.8 (antibody, V domains shown)
VH: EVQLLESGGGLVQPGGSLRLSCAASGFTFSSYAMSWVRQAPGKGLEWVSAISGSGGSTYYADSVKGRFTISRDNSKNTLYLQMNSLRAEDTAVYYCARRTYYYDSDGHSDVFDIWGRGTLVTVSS
VL: QSVVTQPPSVSAAPGQKVTISCSGSASNIGSNFVSWYQQLPGTAPKLLIYDNDKRDLGIPDRFSGSKSGTSATLGITGLQTGDEADYYCGTWDTSLTVGVFGGGTKLTVL
notes: as for B2
B4: ILT70083.4 (antibody, V domains shown)
VH: EVQLLESGGGLVQPGGSLRLSCAASGFTFSSYAMSWVRQAPGKGLEWVSAISGSGGSTYYADSVKGWFTISRDNSKNTLYLQMNSLRAEDTAVYYCARRTYYYDSDGHSDVFDIWGRGTLVTVSS
VL: QSVLTQPPSVSAAPGQKVTISCSGSASNIGSNFVSWYQQLPGTAPKLLIYDNDKRDLGIPDRFSGSKSGTSATLGITGLQTGDEADYYCGTWDTSLTVGVFGGGTKLTVL
notes: as for B2
B5: ILT70083.7 (antibody, V domains shown)
VH: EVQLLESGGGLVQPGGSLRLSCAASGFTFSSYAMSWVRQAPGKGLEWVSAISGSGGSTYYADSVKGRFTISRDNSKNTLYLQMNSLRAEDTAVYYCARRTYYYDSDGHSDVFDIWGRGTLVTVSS
VL: QSVLTQPPSVSAAPGQKVTISCSGSASNIGSNFVSWYQQLPGTAPKLLIYDNDKRDLGIPDRFSASISSTSATLGITGLQTGDEADYYCGTWDTSLTVGVFGGGTKLTVL
B6: ILT70083.6 (antibody, V domains shown)
VH: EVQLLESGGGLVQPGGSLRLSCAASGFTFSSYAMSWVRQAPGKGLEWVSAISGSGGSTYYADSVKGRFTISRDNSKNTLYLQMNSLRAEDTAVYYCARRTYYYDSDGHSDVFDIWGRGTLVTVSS
VL: QSVVTQPPSVSAAPGQKVTISCSGSASNIGSNFVSWYQQLPGTAPKLLIYDNDKRDLGIPDRFSASISSTSATLGITGLQTGDEADYYCGTWDTSLTVGVFGGGTKLTVL
notes: as for B2
B7: ILT70083.9 (antibody, V domains shown)
VH: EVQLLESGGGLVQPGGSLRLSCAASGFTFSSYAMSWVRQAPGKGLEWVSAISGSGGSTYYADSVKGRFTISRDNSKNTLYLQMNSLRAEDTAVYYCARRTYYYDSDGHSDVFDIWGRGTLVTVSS
VL: QSVLTQPPSVSAAPGQKVTISCSGSASNIGSNFVSWYQQLPGTAPKLLIYDNDKRDLGIPDRFSGSKSGTSATLGITGLQTGDEADYYCGTWDTSLTVGVFGGGTKLTVL
notes: as for B2
B8: ILT70083.2 (antibody, V domains shown)
VH: EVQLLESGGGLVQPGGSLRLSCAASGFTFSSYAMSWVRQAPGKGLEWVSAISGSGGSTYYADSVKGWFTISRDNSKNTLYLQMNSLRAEDTAVYYCARRTYYYDSDGHSDVFDIWGRGTLVTVSS
VL: QSVLTQPPSVSAAPGQKVTISCSGSASNIGSNFVSWYQQLPGTAPKLLIYDNDKRDLGIPDRFSASISSTSATLGITGLQTGDEADYYCGTWDTSLTVGVFGGGTKLTVL
B9: ILT70083.5 (antibody, V domains shown)
VH: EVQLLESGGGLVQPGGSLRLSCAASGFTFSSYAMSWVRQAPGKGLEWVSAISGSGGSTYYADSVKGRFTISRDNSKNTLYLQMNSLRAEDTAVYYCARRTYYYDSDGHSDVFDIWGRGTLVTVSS
VL: QSVVTQPPSVSAAPGQKVTISCSGSASNIGSNFVSWYQQLPGRAPKLLIYDNDKRDLGIPDRFSASISSTSAALAITGLQTEDEADYYCGTWDTSLTVGVFGGGTKLTVL
B10: afucosylated IgG1 ILT70137 (antibody, V domains shown)
VH: QVQLQQSGAEVKKPGASVKVSCKASGYTFTSYGISWVRQAPGQGLEWMGWISAYNGNTNYAQKLQGRVTMTTDTSTSTAYMELRSLRSDDTAVYYCARNGLWGWDSDAFDIWGRGTLVTVSS
VL: QSALTQPASVSGSPGQSITISCTGTSSDVGGYNYVSWYQQHPGKAPKLMIYDVSNRPSGVSNRFSGSKSGNTASLTISGLQAEDEADYYCSSYTSSSTVVFGGGTKVTVL
modifications: afucosylated (made as in Example 7: lacks the α-1,6 fucose moiety on the N-glycan at Asn-297 of the heavy chain)
B11: ILT70080.2 (antibody, V domains shown)
VH: QVQLVQSGAEVKKPGSSVKVSCKASGDSFRNYAVSWVRQAPGQGLEWMGAMMPSFGTREHSQQFQGRVTLSADESTSTAYMELSSLRSEDTAVYYCAGSRDYNAYHFWTGPPDFWGRGTLVTVSS
VL: SYVLTQPPSVSVAPGKTARITCGGDSVGSTSVHWYQQKPGQAPVMVMFYNSDRPSGIPERFSGSISGNTATLTISRVEAGDEADYYCQVWDTSSDHPEFGGGTKLTVL
notes: Engineered (germlined) ILT70080 variant tested as IgG1; also called ILT70080 variant
B12: ILT70080.3 (antibody, V domains shown)
VH: QVQLVQSGAEVKAPGTSVKVSCKASGDSFRNYAVSWVRQAPGQGLEWMGAMMPSFGTREHSQQFQGRVTLSADESTSTAYMELSSLRSEDTAVYYCAGSRDYNAYHFWTGPPDFWGRGTLVTVSS
VL: SYVLTQPPSVSVAPGKTARITCGGDSVGSTSVHWYQQKPGQAPVMVMFYNSDRPSGIPERFSGSISGNTATLTISRVEAGDEADYYCQVWDTSSDHPEFGGGTKLTVL
notes: as for B11
B13: ILT70080.5 (antibody, V domains shown)
VH: QVQLVQSGAEVKKPGSSVKVSCKASGDSFRNYAVSWVRQAPGQGLEWMGAMMPSFGTREHSQQFQGRVTLTADESTSTAYMELSSLRSEDTAVYYCAGSRDYNAYHFWTGPPDFWGRGTLVTVSS
VL: SYVLTQPPSVSVAPGKTARITCGGDSVGSTSVHWYQQKPGQAPVMVMFYNSDRPSGIPERFSGSNSGNTATLTISRVEAGDEADYYCQVWDTSSDHPEFGGGTKLTVL
notes: as for B11
B14: ILT70080.1 (antibody, V domains shown)
VH: QVQLVQSGAEVKKPGSSVKVSCKASGDSFRNYAVSWVRQAPGQGLEWMGAMMPSFGTREHSQQFQGRVTLTADESTSTAYMELSSLRSEDTAVYYCAGSRDYNAYHFWTGPPDFWGRGTLVTVSS
VL: SYVLTQPPSVSVAPGKTARITCGGDSVGSTSVHWYQQKPGQAPVMVMFYNSDRPSGIPERFSGSISGNTATLTISRVEAGDEADYYCQVWDTSSDHPEFGGGTKLTVL
notes: as for B11
B15: ILT70080.6 (antibody, V domains shown)
VH: QVQLVQSGAEVKKPGSSVKVSCKASGDSFRNYAVSWVRQAPGQGLEWMGAMMPSFGTREHSQQFQGRVTLTADESTSTAYMELSSLRSEDTAVYYCAGSRDYNAYHFWTGPPDFWGRGTLVTVSS
VL: SYVLTQPPSVSVAPGKTARITCGGDSVGSTSVHWYQQKPGQAPVLVIYYNSDRPSGIPERFSGSNSGNTATLTISRVEAGDEADYYCQVWDTSSDHPEFGGGTKLTVL
notes: as for B11
B16: ILT70080.7 (antibody, V domains shown)
VH: QVQLVQSGAEVKKPGSSVKVSCKASGDSFRNYAVSWVRQAPGQGLEWMGAMMPSFGTREHSQQFQGRVTLTADESTSTAYMELSSLRSEDTAVYYCAGSRDYNAYHFWTGPPDFWGRGTLVTVSS
VL: SYVLTQPPSVSVAPGKTARITCGGDSVGSTSVHWYQQKPGQAPVLVMFYNSDRPSGIPERFSGSNSGNTATLTISRVEAGDEADYYCQVWDTSSDHPEFGGGTKLTVL
notes: as for B11
B17: ILT70080.4 (antibody, V domains shown)
VH: QVQLVQSGAEVKAPGTSVKVSCKASGDSFRNYAVSWVRQAPGQGLEWMGAMMPSFGTREHSQQFQGRVTLSADESTSTAYMELSSLRSEDTAVYYCAGSRDYNAYHFWTGPPDFWGRGTLVTVSS
VL: SYELTQPPSVSVAPGKTAKISCGGDSVGSTSVHWYQQKPGQAPVMVMFYNSDRPSGIPERFSGSISGNTATLTISRVEAGDEADYYCQVWDTSSDHPEFGGGTKLTVL
notes: as for B11
B18: afucosylated ILT70080.6 (antibody, V domains shown)
VH: QVQLVQSGAEVKKPGSSVKVSCKASGDSFRNYAVSWVRQAPGQGLEWMGAMMPSFGTREHSQQFQGRVTLTADESTSTAYMELSSLRSEDTAVYYCAGSRDYNAYHFWTGPPDFWGRGTLVTVSS
VL: SYVLTQPPSVSVAPGKTARITCGGDSVGSTSVHWYQQKPGQAPVLVIYYNSDRPSGIPERFSGSNSGNTATLTISRVEAGDEADYYCQVWDTSSDHPEFGGGTKLTVL
modifications: afucosylated (no core fucose on the Fc N-glycan)

Tests used:
[1] = target: human ILT7 expressed on transfected cells (human, UniProt P59901 24-499); test: cell-based or functional assay
Sequence of human ILT7 expressed on transfected cells (P59901 24-499): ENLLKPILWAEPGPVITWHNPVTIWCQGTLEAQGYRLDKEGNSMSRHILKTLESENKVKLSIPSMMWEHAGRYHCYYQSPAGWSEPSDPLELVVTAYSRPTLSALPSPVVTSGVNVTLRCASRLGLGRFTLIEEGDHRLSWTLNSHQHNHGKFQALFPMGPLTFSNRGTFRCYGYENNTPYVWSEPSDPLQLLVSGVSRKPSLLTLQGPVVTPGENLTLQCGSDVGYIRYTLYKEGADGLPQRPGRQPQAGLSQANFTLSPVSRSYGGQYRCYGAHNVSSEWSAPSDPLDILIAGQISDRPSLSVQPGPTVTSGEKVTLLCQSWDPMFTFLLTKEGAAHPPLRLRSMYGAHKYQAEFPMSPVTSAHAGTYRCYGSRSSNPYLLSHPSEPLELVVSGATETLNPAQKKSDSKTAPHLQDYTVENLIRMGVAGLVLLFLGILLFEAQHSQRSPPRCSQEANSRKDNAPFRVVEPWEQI

[2] = target: T1, cynomolgus ILT7 expressed on transfected cells (cynomolgus, UniProt P59901 24-499 (human entry)); test: flow cytometry on CT-125 cells expressing cynomolgus ILT7
T1 construct: also called cyno ILT7; CynoILT7 CT-125 cells
T1 sequence (P59901 other isoform, or with tags, fused parts or gaps limits assumed): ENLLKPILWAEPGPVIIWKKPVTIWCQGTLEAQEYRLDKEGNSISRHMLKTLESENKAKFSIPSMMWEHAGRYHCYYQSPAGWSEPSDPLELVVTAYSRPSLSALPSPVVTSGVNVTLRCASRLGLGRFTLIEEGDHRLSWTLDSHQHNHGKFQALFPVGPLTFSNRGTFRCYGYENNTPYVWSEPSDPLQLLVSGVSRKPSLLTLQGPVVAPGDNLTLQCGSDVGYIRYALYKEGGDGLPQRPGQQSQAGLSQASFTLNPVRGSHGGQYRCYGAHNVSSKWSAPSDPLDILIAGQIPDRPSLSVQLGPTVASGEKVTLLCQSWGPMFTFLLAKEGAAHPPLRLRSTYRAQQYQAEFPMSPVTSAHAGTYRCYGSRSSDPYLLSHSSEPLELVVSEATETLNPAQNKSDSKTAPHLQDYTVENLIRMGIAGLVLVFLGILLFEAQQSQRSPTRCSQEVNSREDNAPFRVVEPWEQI
Protocol: Binding of anti-ILT7 variants and isotype controls on human and cynomolgus ILT7 was assessed by flow cytometry analysis using CT-550 and cynoILT7 CT-125 cells respectively. CT-125 cells were used as control. Cells were resuspended in Blocking Buffer (PBS supplemented with 10% FBS) at a concentration of 5 million cells per mL and transferred into a round-bottom 96-well plates (BD Falcon™ Clear Microtest Plate, BD Biosciences) at 100 μL per well. Anti-ILT7 variants and control antibodies were added onto the cells for 30 min at 4° C. on a plate shaker. Cells were washed three times with PBS and resuspended in Blocking Buffer (100 μL/well). Human IgG binding on cell surface was detected using a secondary anti-human IgG antibody conjugated to DyLight 649 (1 in 1000 dilution). Cells were incubated in the dark for 30 min at 4° C. on a plate shaker. Cells were washed three times with PBS and surface fluorescence was acquired using LSRII Flow Cytometry System and FACSDiva Software (both from BD Biosciences).
The resultant IgG1s were tested to confirm that the sequence changes incorporated into ILT70080 and ILT70083 and had not adversely impacted the binding of the parent antibody to cells expressing human ILT7 (CT-550 cells) or cynomolgus ILT7 (CT-125 cells). The variants were screened for binding by flow cytometry. […] However, five ILT70083 variants (ILT70083.4, ILT70083.9, ILT70083.3, ILT70083.6, and ILT70083.8) had improved binding capacity compared to the parental antibody for cynomolgus ILT7.

[3] = target: T1, cynomolgus ILT7 expressed on …; test: cell-based or functional assay

| Binder | ADCC potency EC50 [1] | binding result [2] | ADCC EC50 [1] | ADCC EC50 [3] |
| --- | --- | --- | --- | --- |
| B1 | > 89 µM | – | – | – |
| B2 | > 89 µM | binds | – | – |
| B3 | > 89 µM | binds | – | – |
| B4 | > 89 µM | binds | – | – |
| B5 | > 89 µM | – | – | – |
| B6 | > 89 µM | binds | – | – |
| B7 | > 89 µM | binds | – | – |
| B8 | > 89 µM | – | – | – |
| B9 | > 89 µM | – | – | – |
| B10 | – | – | 4.19 µM | 1.89 µM |
| B11 | < 14.1 µM | binds | – | – |
| B12 | < 14.1 µM and 11 µM | binds | – | – |
| B13 | < 14.1 µM and 8.6 µM | binds | – | – |
| B14 | < 14.1 µM and 8 µM and 10 µM | binds | – | – |
| B15 | < 14.1 µM and 6.9 µM | binds | – | – |
| B16 | < 14.1 µM and 7.8 µM | binds | – | – |
| B17 | < 14.1 µM and 11.9 µM | binds | – | – |
| B18 | – | – | 1.12 µM | 0.44 µM |
